Data from paper PMC8062024.
Read-outs that look alike come from different tables or passages of the source.

Substance	enzymatic_activity (N-glycosylation at N424)	enzymatic_activity (N-glycosylation at N170)	enzymatic_activity (N-glycosylation at N79)	expression_or_secretion (N-glycosylation at N79)	expression_or_secretion (N-glycosylation at N170)	expression_or_secretion (N-glycosylation at N424)
PmCOX (Penaeus monodon cyclooxygenase): N424Q	abolishes, secreted PGE2 2.79 nM vs 7.40 nM wild type (empty vector 2.68 nM)	–	–	–	–	–
PmCOX (Penaeus monodon cyclooxygenase): N170Q	–	abolishes, secreted PGE2 2.45 nM vs 7.40 nM wild type (empty vector 2.68 nM)	–	–	–	–
PmCOX (Penaeus monodon cyclooxygenase): N79Q/N170Q/N424Q triple mutant	abolishes, secreted PGE2 2.23 nM vs 7.40 nM wild type (empty vector 2.68 nM)	abolishes, secreted PGE2 2.23 nM vs 7.40 nM wild type (empty vector 2.68 nM)	abolishes, secreted PGE2 2.23 nM vs 7.40 nM wild type (empty vector 2.68 nM)	decreases	decreases	decreases
PmCOX (Penaeus monodon cyclooxygenase): N79Q	–	–	no change, secreted PGE2 8.65 nM vs 7.40 nM wild type (40 uM ARA)	no change	–	–
